Measurements as given in paper doi:10.1101/553636.

Molecular target: BD-Barstar D35A
Assay: two-hybrid

Substance: AD-Barnase H102A (enzyme)
- Kd: 11 to 122 nM
